Measured values taken from US20230181718A1.

Target: Endo-H treated SApNPs
Test: BLI, Octet RED96; Endo-H treated against wildtype SApNPs

With VRC01 (antibody) the fold higher binding than the wildtype SApNPs was 2 to 3.5 fold.
